Results reported in US20040018971A1 (published 2004).

B1: Herw/neu414.Y2F9 (peptide)
peptide: AYPDSLPDF
notes: HER2/neu analog peptide; label printed with a misprint (Herw/neu414)
B2: Her2/neu.8 (peptide)
peptide: RWGLLLAL
notes: HER2/neu peptide, 8-mer; also called RWGLLLAL
B3: HER2/neu peptide, position 167, 9 amino acids (peptide)
peptide: ILWKDIFHK
notes: Synthetic peptide; also called Her2/neu.167
B4: HER2/neu peptide, position 478, 10 amino acids (peptide)
peptide: HTVPWDQLFR
notes: Synthetic peptide; also called Her2/neu.478
B5: HER2/neu peptide, position 42, 9 amino acids (peptide)
peptide: HLDMLRHLY
notes: Synthetic peptide; also called Her2/neu.42
B6: HER2/neu peptide, position 1196, 9 amino acids (peptide)
peptide: YLTPQGGAA
notes: Synthetic peptide; also called HER2/neu 1196-1204

target: HLA-A*2402 (human); assay: inhibition of 125I-labeled probe peptide binding to purified HLA-A*2402, gel filtration

Row | Binder | IC50 [nM]
1 | B1 | 24
2 | CYGLGMEHF (HER2/neu analog peptide) [Her2/neu.342.F9] | 164
3 | LYISAWPDSL (HER2/neu peptide) [Her2/neu.410] | 143
4 | LYISAWPDSF (HER2/neu analog peptide) [Her2/neu.410.F10] | 10
5 | AYSLTLQGL (HER2/neu peptide) [Her2/neu.440] | 92
6 | AYSLTLQGF (HER2/neu analog peptide) [Her2/neu.440.F9] | 52
7 | RYTHQSDVF (HER2/neu analog peptide) [Her2/neu.898.Y2F9] | 60
8 | SYMPIWKF (HER2/neu peptide) [Her2/neu.609] | 38
9 | SYGVTVWEL (HER2/neu peptide) [Her2/neu.907] | 100
10 | B2 | 480
11 | TYLPTNASL (HER2/neu peptide, 9-mer) [Her2/neu.63] | 316
12 | TYLPTNASF (HER2/neu analog peptide) [Her2/neu.63.F9] | 44

target: HLA-A*1101 (human); assay: competition with 125I-labelled probe peptide for purified HLA-A*1101, gel filtration; ratio to standard peptide 940.06 [..] (6.0 nM)

Row | Binder | relative binding ratio (IC50 of standard peptide / IC50 of test peptide) [ratio]
13 | WIPDGENVK (also called Her2/neu.739) [HER2/neu peptide, printed position 730 (taken as 739), 9 amino acids] | 0.0001
14 | VSEFSRMAR (also called Her2/neu.973) [HER2/neu peptide, position 973, 9 amino acids] | 0.0021
15 | YVLIAHNQVR (also called Her2/neu.83) [HER2/neu peptide, position 83, 10 amino acids] | 0.0013
16 | WMIDSECRPR (also called Her2/neu.959) [HER2/neu peptide, position 959, 10 amino acids] | 0.0002
17 | VVQGNLELTY (also called Her2/neu.55) | 0.011
18 | VTGASPGGLR (also called Her2/neu.129) [HER2/neu peptide, position 129, 10 amino acids] | 0.0005
19 | YVMAGVGSPY (also called Her2/neu.772) | 0.012
20 | YLEDVRLVHR (also called Her2/neu.835) [HER2/neu peptide, position 835, 10 amino acids] | 0.0001
21 | WMALESILR (also called Her2/neu.888) [HER2/neu peptide, position 888, 9 amino acids] | -0.0002
22 | VTAEDGTQR (also called Her2/neu.322) [HER2/neu peptide, position 322, 9 amino acids] | 0.014
23 | WMALESILRR (also called Her2/neu.888) [HER2/neu peptide, position 888, 10 amino acids] | 0.0016

target: T1, HLA-A*0101 (purified HLA class I molecule) (human); assay: competition with 125I-labelled standard peptide on purified HLA-A*0101, gel filtration
T1 construct: also called HLA-A1

Row | Binder | relative binding ratio (IC50 of standard peptide / IC50 of test peptide) [ratio]
24 | DMGDLVDAEEY [HER2/neu peptide, position 1013, 11 amino acids] | 0.0027
25 | RVLQGLPREY [HER2/neu peptide, position 545, 10 amino acids] | 0.0015
26 | PLTCSPQPEY [HER2/neu peptide, position 1130, 10 amino acids] | 0.0072
27 | CSKPCARVCY [HER2/neu peptide, position 334, 10 amino acids] | 0.0016
28 | ETLEEITGYLY (also called Her2/neu.401) [HER2/neu peptide, position 401, 11 amino acids] | 0.44
29 | ELMTFGAKPY [HER2/neu peptide, position 914, 10 amino acids] | 0.0082
30 | RLLDIDETEY [HER2/neu peptide, position 868, 10 amino acids] | 1.3
31 | ETHLDMLRHLY (also called Her2/neu.40) [HER2/neu peptide, position 40, 11 amino acids] | 0.28
32 | YVMAGVGSPY | 1.1
33 | PTHDPSPLQRY (H is used here) [HER2/neu peptide, position 1102, 11 amino acids] | 0.016
34 | VVQGNLELTY | 0.018
35 | PSGVKPDLSY [HER2/neu peptide, position 601, 10 amino acids] | 0.001

target: T2, HLA-A*0301 (human); assay: competitive inhibition of 125I-labelled standard peptide binding to purified HLA-A*0301, gel filtration; standard 941.12 [..] (11 nM)
T2 construct: also called HLA-A3

Row | Binder | relative binding ratio (IC50 of standard peptide / IC50 of test peptide) [ratio]
36 | ILIKRRQQK (T0001 prints T at residue 673 (FGTLIK)) [HER2/neu peptide, position 673, 9 amino acids] | 0.38
37 | B3 | 0.28
38 | ILKETELRK (Synthetic peptide) [HER2/neu peptide, position 714, 9 amino acids] | 0.019
39 | B4 | 0.0035
40 | LCYQDTILWK (Synthetic peptide) [HER2/neu peptide, position 161, 10 amino acids] | 0.0081
41 | HSCVDLDDK (Synthetic peptide) [HER2/neu peptide, position 632, 9 amino acids] | -0.0002
42 | KIRKYTMR (Synthetic peptide) [HER2/neu peptide, position 681, 8 amino acids] | 0.001
43 | B5 | 0.037
44 | LALTLIDTNR (Synthetic peptide) [HER2/neu peptide, position 179, 10 amino acids] | -0.0002
45 | KVLRENTSPK (Synthetic peptide) [HER2/neu peptide, position 753, 10 amino acids] | 0.38
46 | KIPVAIKVLR (Synthetic peptide) [HER2/neu peptide, position 747, 10 amino acids] | 0.0009
47 | LACHQLCAR (Synthetic peptide) [HER2/neu peptide, position 509, 9 amino acids] | -0.0002

target: T3, HLA-A*0201 (human); assay: inhibition of 125I-labelled probe peptide binding to purified HLA, gel filtration
T3 construct: also called HLA-A2.1

Row | Binder | relative binding ratio
48 | B6 | 0.0001 ratio (IC50 of standard peptide / IC50 of test peptide)

target: T4, HLA-A*0101 (human); assay: inhibition of 125I-labeled probe peptide binding to purified HLA-A*0101, gel filtration
T4 construct: also called HLA-A1

Row | Binder | IC50 [nM]
49 | GTDMKLRLPY (HER2/neu analog peptide) [Her2/neu.28.Y10] | 50
